Source: article PMC7070470, “Thermostable Tannase from Aspergillus Niger and Its Application in the Enzymatic Extraction of Green Tea” (Molecules, 2020)

Substrate: CCCOC(=O)c1cc(O)c(O)c(O)c1
Assay: purified protein
Format: biochemical, Aspergillus niger
Settings: standard assay condition

B1: rAntan1 (tannase from A. niger FJ0118, Antan1 without signal peptide) (Aspergillus niger CBS 513.88) (protein)
chain: ATPSTLAELCTDSIVKAALPPSEFIQGITIDSDSVTTEVVTNSSVSSEFYPSATINYCNVTFAYSHDGIDGDQVLLEIWLPAPTDFQNRWLSTGGGGYAINSGDQSLPGGVMYGAASGMTDGGFGGFSNNADTAMLLANGTLDYETLYMFAYKAHRELSLIGKALTRNVYGMSDSDKLYAYYQGCSEGGREGWSQVQRFGDEWDGAIIGAPAFRWSFQQTQHLYSNVVEKTLDYYPPPCELDKIVNETIAACDAMDGKVDWVVARTDLCLLDFDISTIEGKPYSCAASRGTPAQNGTVSAKGIEVAKTIINGLHDSQGRRVYFSYQPTAAFDDAETQYNSTTGQWGLDIDQLGGEYIALLVDKNGTTLDSLDGVTYDTLKDWMISGLQEYYSTLQTTWPDLTPFHEAGGKVIHFHGDADFSIPTAASIRYWESVRSIMYPNQDYNSSAEALNEWYRLYTVPGAGHCATNDAMPNGPFPQTNMAVMIDWVENGVVPTTLNATVLQGENEGQNQQLCAWPLRPLWTNNGTTMECVYNQRSIDSWHYDLDAVPMPVY
notes: mature form, predicted 20-residue signal peptide removed; secreted from Pichia pastoris SMD1168 (pPIC9K), DEAE-Sepharose purified; 1725 bp ORF, 575 residues printed
With B1 the Km was 73 µM and the kcat (substrate range printed as 0.05–1.0 M) was 1060 s⁻¹.
